For one substance, EC50, luciferase reporter-based assay (receptor activation) results are on record in patent US20250066509A1.

What all share (test): cell-based or functional assay
Assay [1] has as its target cynomolgus monkey FGFR1c/βKlotho receptor (cynomolgus monkey).
Assay [2] has as its target human FGFR1c/βKlotho receptor (human) (UniProt P11362).
The target of assay [3] is human FGFR2c/βKlotho receptor (human) (UniProt P21802).
The target of assay [4] is human FGFR3c/βKlotho receptor (human) (UniProt P22607).
Chain of human FGFR3c/βKlotho receptor (human) (P22607 23-806, chain 1 of 2): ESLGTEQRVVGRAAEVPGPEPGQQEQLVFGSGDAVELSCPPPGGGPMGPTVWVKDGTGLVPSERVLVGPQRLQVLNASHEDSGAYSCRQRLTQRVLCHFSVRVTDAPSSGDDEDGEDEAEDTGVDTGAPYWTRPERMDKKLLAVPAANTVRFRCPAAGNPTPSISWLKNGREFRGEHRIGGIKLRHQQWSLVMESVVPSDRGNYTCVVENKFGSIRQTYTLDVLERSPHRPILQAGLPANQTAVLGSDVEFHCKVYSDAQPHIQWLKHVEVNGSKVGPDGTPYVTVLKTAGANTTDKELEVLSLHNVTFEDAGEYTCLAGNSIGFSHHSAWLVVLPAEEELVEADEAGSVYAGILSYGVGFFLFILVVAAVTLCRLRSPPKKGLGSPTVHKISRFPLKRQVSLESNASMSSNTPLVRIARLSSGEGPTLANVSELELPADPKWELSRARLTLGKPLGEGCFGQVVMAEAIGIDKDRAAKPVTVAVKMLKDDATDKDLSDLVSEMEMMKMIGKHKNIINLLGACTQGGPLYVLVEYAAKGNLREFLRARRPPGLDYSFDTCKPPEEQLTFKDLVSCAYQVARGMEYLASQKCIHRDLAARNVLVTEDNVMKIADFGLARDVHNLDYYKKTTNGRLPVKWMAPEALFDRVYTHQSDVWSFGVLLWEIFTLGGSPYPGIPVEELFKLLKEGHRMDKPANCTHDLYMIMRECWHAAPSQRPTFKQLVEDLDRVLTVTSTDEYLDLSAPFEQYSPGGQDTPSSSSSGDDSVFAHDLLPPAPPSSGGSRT
Chain of human FGFR3c/βKlotho receptor (human) (chain, as listed by the source, chain 2 of 2): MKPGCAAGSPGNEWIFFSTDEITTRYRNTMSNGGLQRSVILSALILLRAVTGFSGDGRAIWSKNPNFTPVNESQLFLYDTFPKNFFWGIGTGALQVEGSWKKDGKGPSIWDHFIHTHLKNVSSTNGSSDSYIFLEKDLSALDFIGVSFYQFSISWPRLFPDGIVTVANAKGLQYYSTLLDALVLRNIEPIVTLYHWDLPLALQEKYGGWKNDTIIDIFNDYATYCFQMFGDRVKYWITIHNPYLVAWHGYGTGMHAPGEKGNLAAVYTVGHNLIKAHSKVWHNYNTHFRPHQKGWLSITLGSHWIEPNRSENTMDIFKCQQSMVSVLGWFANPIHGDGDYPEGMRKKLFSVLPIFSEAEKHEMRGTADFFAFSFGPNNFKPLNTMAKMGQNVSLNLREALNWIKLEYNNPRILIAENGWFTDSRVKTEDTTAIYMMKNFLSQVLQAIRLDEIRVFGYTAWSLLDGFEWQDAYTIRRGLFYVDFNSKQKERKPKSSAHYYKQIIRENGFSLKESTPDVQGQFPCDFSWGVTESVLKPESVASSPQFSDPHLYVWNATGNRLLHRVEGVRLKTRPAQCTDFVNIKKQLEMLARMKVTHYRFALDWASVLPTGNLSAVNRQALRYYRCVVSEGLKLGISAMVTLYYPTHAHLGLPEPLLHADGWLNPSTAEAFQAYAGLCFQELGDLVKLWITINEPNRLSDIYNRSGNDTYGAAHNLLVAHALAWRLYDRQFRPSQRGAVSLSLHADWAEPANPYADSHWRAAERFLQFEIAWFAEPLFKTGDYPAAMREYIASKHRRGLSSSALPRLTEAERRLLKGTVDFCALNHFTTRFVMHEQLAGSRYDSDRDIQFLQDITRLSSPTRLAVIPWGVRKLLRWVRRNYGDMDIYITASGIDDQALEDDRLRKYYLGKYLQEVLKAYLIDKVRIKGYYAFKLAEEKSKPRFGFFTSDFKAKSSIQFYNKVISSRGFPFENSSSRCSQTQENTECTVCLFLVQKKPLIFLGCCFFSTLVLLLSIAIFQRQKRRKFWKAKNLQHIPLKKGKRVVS
For assay [5], the target named is human FGFR4/βKlotho receptor (human) (UniProt P22455).
Chain of human FGFR4/βKlotho receptor (human) (P22455 22-802, chain 1 of 2): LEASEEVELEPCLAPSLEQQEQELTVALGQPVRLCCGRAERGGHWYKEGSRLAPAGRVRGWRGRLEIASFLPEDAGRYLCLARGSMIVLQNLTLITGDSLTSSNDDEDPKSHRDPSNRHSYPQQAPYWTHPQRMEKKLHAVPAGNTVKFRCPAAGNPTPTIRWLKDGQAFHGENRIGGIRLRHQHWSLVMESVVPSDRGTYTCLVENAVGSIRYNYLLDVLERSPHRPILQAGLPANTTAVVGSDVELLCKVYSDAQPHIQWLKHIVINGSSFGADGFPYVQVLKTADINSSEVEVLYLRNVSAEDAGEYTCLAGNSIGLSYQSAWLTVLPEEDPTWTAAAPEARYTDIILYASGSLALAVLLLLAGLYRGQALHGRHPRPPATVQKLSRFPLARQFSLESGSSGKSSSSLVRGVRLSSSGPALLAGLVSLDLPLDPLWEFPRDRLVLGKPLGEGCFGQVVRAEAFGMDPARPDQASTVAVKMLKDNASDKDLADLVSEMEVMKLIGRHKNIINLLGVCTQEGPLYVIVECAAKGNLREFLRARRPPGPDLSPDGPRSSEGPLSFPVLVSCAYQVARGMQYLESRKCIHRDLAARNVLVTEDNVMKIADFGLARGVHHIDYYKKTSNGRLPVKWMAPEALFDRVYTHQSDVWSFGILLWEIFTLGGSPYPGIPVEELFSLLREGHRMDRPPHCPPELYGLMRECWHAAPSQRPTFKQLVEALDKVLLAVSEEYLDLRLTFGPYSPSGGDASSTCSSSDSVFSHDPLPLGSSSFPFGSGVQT
Chain of human FGFR4/βKlotho receptor (human) (chain, as listed by the source, chain 2 of 2): as the sequence (chain, as listed by the source, chain 2 of 2) above

Chain of human FGFR2c/βKlotho receptor (human) (P21802 22-821, chain 1 of 2): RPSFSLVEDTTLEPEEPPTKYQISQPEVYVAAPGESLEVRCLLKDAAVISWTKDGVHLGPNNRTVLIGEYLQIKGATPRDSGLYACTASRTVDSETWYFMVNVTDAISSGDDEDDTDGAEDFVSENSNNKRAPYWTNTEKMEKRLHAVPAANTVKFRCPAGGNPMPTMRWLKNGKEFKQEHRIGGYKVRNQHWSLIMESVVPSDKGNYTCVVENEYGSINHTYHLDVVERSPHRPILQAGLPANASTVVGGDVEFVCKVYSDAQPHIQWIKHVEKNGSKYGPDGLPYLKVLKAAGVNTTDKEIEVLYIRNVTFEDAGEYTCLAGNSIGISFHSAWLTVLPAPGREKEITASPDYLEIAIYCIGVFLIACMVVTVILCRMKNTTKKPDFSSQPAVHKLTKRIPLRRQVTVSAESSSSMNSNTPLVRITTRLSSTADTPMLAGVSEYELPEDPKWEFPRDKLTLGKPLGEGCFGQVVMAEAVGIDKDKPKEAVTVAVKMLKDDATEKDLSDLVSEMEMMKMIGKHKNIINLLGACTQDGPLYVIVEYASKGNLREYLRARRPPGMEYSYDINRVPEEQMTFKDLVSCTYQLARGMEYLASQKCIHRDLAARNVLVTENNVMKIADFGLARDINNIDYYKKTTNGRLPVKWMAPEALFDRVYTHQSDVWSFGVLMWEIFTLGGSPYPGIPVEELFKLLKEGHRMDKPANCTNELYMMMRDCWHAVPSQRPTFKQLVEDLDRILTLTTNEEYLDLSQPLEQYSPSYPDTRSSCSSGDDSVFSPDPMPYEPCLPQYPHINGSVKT
Chain of human FGFR2c/βKlotho receptor (human) (chain, as listed by the source, chain 2 of 2): as the sequence (chain, as listed by the source, chain 2 of 2) above
Chain of human FGFR1c/βKlotho receptor (human) (P11362 22-822, chain 1 of 2): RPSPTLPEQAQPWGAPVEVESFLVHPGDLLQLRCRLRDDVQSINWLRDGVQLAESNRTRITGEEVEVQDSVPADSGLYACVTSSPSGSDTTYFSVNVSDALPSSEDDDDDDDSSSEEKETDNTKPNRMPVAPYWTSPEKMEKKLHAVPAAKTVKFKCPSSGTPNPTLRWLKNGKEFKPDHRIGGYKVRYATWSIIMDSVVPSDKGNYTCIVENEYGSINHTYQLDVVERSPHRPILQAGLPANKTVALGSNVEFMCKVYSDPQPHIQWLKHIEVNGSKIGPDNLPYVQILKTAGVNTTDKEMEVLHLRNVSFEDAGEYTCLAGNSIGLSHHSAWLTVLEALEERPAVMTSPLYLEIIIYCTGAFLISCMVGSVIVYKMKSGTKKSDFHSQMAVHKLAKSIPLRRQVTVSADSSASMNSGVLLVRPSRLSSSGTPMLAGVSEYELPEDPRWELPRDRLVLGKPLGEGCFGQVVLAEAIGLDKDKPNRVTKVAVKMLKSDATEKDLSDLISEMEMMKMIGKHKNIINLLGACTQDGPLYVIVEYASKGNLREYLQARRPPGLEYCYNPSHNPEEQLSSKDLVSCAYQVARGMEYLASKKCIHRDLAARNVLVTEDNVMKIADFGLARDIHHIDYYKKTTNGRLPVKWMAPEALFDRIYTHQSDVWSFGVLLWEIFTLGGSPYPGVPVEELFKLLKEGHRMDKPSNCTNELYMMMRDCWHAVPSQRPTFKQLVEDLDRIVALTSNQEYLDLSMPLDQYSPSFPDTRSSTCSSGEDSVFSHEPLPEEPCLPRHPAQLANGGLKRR
Chain of human FGFR1c/βKlotho receptor (human) (chain, as listed by the source, chain 2 of 2): as the sequence (chain, as listed by the source, chain 2 of 2) above

“FGF19 (from UniProt O95750 25-216) (ligand)”: the EC50, luciferase reporter-based assay (receptor activation) in assay [1] came out at 2.23 nM; in assay [2], 0.41 nM; in assay [3], 0.27 nM; in assay [4], 0.3 nM; in assay [5], 0.05 nM.
